Experimental data from US7807396B2, “Insulin degrading enzyme assays for treatment of alzheimer's disease” (University of Kentucky Research Foundation, priority 2000, dated 2010).

Molecular target: T1, β-endorphin (Homo sapiens, UniProt P01189)
T1 construct: Human β-endorphin1-31; purchased National Institute on Drug Abuse drug supply system
T1 sequence (P01189 237-267): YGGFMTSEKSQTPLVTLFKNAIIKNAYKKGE
Test: Insulysin activity determination, disappearance of β-endorphin by HPLC
Assay type: biochemical
Conditions: 30 μM β-endorphin, 37° C.
Description: Materials. […] Solutions were prepared by dissolving the peptide in dimethylsulfoxide (DMSO) to give a stock concentration of 200 μM. The peptide stock was lyophilized and stored at −80° C. until use. The aggregation state of Aβ peptide stock solutions was checked by electron microscopy (Ray et al. (2000) Brain Res 853:344-351) and found to be predominantly, if not exclusively, monomeric. For the in vitro reactions with insulysin, a final concentration of 25 μM Aβ1-40 was obtained after bringing the lyophilized peptide into solution with double distilled water. […] Human β-endorphin1-31, obtained from the National Institute on Drug Abuse drug supply system, was dissolved in water to give a stock solution of 300 μM. Trifluoroacetic acid (Sigma Biochemicals, St. Louis, Mo.) was diluted into water to produce a 5% working solution.
Insulysin activity was assayed by measuring the disappearance of β-endorphin by isocratic reverse phase HPLC (Safavi et al. (1996) Biochemistry 1996 35:14318-14325). A 100 μl reaction mixture containing 40 mM potassium phosphate buffer, pH 7.2, 30 μM β-endorphin, and enzyme was incubated for 15 minutes at 37° C. […] The β-endorphin peak was detected by absorbance at 214 nm using a Waters 484 detector. The reaction was quantitated by measuring the decrease in the β-endorphin peak area.

B1: enzyme purified from a thymoma cell line, EL-4: insulysin enzyme purified from a thymoma cell line, EL-4, used for comparison of specific activity (protein, UniProt Q9JHR7 1-1019, looked up)
Insulin-degrading enzyme: MRNGLVWLLHPALPGTLRSILGARPPPAKRLCGFPKQTYSTMSNPAIQRIEDQIVKSPEDKREYRGLELANGIKVLLISDPTTDKSSAALDVHIGSLSDPPNIPGLSHFCEHMLFLGTKKYPKENEYSQFLSEHAGSSNAFTSGEHTNYYFDVSHEHLEGALDRFAQFFLCPLLDASCKDREVNAVDSEHEKNVMNDAWRLFQLEKATGNPKHPFSKFGTGNKYTLETRPNQEGIDVREELLKFHSTYYSSNLMAICVLGRESLDDLTNLVVKLFSEVENKNVPLPEFPEHPFQEEHLRQLYKIVPIKDIRNLYVTFPIPDLQQYYKSNPGYYLGHLIGHEGPGSLLSELKSKGWVNTLVGGQKEGARGFMFFIINVDLTEEGLLHVEDIILHMFQYIQKLRAEGPQEWVFQECKDLNAVAFRFKDKERPRGYTSKIAGKLHYYPLNGVLTAEYLLEEFRPDLIDMVLDKLRPENVRVAIVSKSFEGKTDRTEQWYGTQYKQEAIPEDVIQKWQNADLNGKFKLPTKNEFIPTNFEILSLEKDATPYPALIKDTAMSKLWFKQDDKFFLPKACLNFEFFSPFAYVDPLHCNMAYLYLELLKDSLNEYAYAAELAGLSYDLQNTIYGMYLSVKRYNDKQPILLKKITEKMATFEIDKKRFEIIKEAYMRSLNNFRAEQPHQHAMYYLRLLMTEVAWTKDELKEALDDVTLPRLKAFIPQLLSRLHIEALLHGNITKQAALGVMQMVEDTLIEHAHTKPLLPSQLVRYREVQLPDRGWFVYQQRNEVHNNCGIEIYYQTDMQSTSENMFLELFCQIISEPCFNTLRTKEQLGYIVFSGPRRANGIQGLRFIIQSEKPPHYLESRVEAFLITMEKAIEDMTEEAFQKHIQALAIRRLDKPKKLSAECAKYWGEIISQQYNYDRDNIEVAYLKTLTKDDIIRFYQEMLAVDAPRRHKVSVHVLAREMDSCPVVGEFPSQNDINLSEAPPLPQPEVIHNMTEFKRGLPLFPLVKPHINFMAAKL
- specific activity: 3.3 μmols/min/mg
